Measured values taken from patent US20260226179A1 (MAB DESIGNS, published 2026).
Several values for one entry are separate records, joined by “and”; a condition that tells them apart may be missing. Equal entries are not always repeated.

Columns and labels:
Experiment in all cases: cell-based or functional assay
human soluble IL-6R [1] = biological target: T1, human soluble IL-6R (human, UniProt P08887 20-357, limits assumed)
T1 sequence: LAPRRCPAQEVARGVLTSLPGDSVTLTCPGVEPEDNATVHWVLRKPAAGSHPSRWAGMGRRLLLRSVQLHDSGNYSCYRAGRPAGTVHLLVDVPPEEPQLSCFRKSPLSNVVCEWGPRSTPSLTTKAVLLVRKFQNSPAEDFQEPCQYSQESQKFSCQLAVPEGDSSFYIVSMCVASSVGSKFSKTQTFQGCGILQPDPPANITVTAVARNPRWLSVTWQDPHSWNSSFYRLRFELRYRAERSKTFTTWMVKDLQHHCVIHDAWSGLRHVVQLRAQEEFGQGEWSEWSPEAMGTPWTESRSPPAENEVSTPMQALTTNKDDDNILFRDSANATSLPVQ

[2] = biological target: Hyper-IL-6 (recombinant fusion protein consisting of IL-6 and soluble IL-6R)
[3] = biological target: T2, human membrane-bound IL-6R subunit alpha (human, UniProt P08887 20-468)
T2 sequence: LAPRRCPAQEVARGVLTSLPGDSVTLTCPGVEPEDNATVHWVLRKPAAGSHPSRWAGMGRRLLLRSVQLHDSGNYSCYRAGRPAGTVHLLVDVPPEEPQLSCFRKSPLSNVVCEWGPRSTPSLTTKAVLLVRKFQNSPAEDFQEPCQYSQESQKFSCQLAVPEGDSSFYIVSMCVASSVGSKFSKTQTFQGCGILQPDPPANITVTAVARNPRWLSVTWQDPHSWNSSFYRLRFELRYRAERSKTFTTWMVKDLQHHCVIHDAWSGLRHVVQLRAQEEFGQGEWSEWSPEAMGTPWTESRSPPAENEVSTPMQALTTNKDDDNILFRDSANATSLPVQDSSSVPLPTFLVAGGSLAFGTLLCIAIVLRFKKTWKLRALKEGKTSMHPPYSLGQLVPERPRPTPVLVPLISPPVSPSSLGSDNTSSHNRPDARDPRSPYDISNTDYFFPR

[4] = biological target: T2, human membrane-bound IL-6R subunit alpha; remark: listed apart in the source
[5] = biological target: T2, human membrane-bound IL-6R subunit alpha; remark: listed apart in the source
[6] = biological target: T3, mouse membrane-bound IL-6R subunit alpha (mouse, UniProt P22272 20-460)
T3 sequence: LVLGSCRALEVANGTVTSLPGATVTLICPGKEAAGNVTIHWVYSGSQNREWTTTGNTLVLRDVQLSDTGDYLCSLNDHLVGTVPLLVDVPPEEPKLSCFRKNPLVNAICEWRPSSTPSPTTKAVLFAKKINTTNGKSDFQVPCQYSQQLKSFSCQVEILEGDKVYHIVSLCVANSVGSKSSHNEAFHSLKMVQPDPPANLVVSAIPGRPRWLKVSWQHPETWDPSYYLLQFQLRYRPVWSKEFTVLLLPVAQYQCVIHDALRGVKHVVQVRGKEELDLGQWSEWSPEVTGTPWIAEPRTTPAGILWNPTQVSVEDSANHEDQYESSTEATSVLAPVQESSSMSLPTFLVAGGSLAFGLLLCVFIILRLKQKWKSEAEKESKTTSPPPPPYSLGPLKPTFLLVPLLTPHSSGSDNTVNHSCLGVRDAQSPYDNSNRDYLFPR

murine soluble IL-6R = biological target: T4, murine soluble IL-6R (mouse, UniProt P22272 20-347, limits assumed)
T4 sequence: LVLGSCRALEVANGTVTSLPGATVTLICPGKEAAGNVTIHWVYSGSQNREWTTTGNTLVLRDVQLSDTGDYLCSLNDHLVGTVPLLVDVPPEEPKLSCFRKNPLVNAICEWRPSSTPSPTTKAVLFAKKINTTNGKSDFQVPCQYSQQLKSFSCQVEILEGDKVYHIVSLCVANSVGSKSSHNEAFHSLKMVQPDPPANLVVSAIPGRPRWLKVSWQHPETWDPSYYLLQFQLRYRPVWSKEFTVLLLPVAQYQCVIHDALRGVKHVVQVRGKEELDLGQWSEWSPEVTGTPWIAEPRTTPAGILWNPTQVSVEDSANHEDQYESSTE

[7] = biological target: T3, mouse membrane-bound IL-6R subunit alpha; remark: listed apart in the source
human soluble IL-6R [8] = biological target: T1, human soluble IL-6R; remark: listed apart in the source
[9] = biological target: T2, human membrane-bound IL-6R subunit alpha; remark: listed apart in the source
[10] = biological target: T2, human membrane-bound IL-6R subunit alpha; remark: listed apart in the source

IC50 of inhibition of proliferation of Ba/F3_gp130 cells induced by 10 ng/ml IL-6 and 200 ng/ml sIL-6R (human soluble IL-6R [1]) | IC50 of inhibition of proliferation of Ba/F3_gp130 cells induced by 28 ng/ml Hy-IL-6 [2] | Proliferation in % of Ba/F3_gp130_IL-6R cells (10 ng/ml IL-6 = 100%), IgG at 1 µg/ml [3] | Proliferation in % of Ba/F3_gp130_IL-6R cells (10 ng/ml IL-6 = 100%), IgG at 10 µg/ml [3] | Proliferation in % of Ba/F3_gp130_IL-6R cells with 10 ng/ml IL-6 and 200 ng/ml sIL-6R (mixed signalling), IgG at 1 µg/ml [4] | Proliferation in % of Ba/F3_gp130_IL-6R cells with 10 ng/ml IL-6 and 200 ng/ml sIL-6R (mixed signalling), IgG at 10 µg/ml [4] | IC50 for inhibition of IL-6 classical signalling-induced proliferation [5] | Proliferation in % of Ba/F3_gp130_muIL-6R cells (10 ng/ml murine IL-6 = 100%), IgG at 10 µg/ml [6] | Proliferation in % of Ba/F3_gp130 cells (10 ng/ml murine IL-6 + 200 ng/ml murine soluble IL-6R = 100%), IgG at 10 µg/ml (murine soluble IL-6R) | Proliferation in % of Ba/F3_gp130_muIL-6R cells (10 ng/ml murine IL-6 + 200 ng/ml murine soluble IL-6R = 100%, mixed signalling), IgG at 10 µg/ml [7] | STAT3 phosphorylation in % in HEK293 cells (10 ng/ml IL-6 + 200 ng/ml sIL-6R for 30 min = 100%), IgG at 1 µg/ml (human soluble IL-6R [8]) | STAT3 phosphorylation in % in HEK293_IL-6R cells (10 ng/ml IL-6 for 30 min = 100%), IgG at 1 µg/ml [9] | STAT3 phosphorylation in % in HEK293_IL-6R cells (10 ng/ml IL-6 + 200 ng/ml sIL-6R = 100%, mixed signalling), IgG at 1 µg/ml [10] | Binder
863 ng/ml and 5.8 nM | 748 ng/ml and 5 nM | 94.3% | 92.2% | 94.3% | 87.6% | > 53 nM | 102% | 106% | 114% | 4% | 97.8% | 99.9% | anti-IL-6R IgG antibody 12 (C12 antibody, Fab chimerized with human IgG1) (antibody, V domains shown) VH: EVKLMESGGGLVQPGGSLKLSCAASGFTFSNYGMSWVRQTPDKRLEWVANINSNGGSTYYPDSVKGRFTISRDNAQNTLYLQMSSLKSEDTAMYYCTRDGNFVSDYWGQGTTLTVSS VL: DIVLTQSPASLAVSPGQRATISCRASESVDSYGNSFMNWYQQKPGQPPKLLIYLASNLESGVPARFSGSGSRTDFTLTIDPVEADDAATYYCQQNNEDPYTFGGGTKLEIK
1210 ng/ml and 8 nM | 755 ng/ml and 5 nM | 100% | 93.1% | 104% | 95.2% | > 53 nM | 105% | 108% | 116% | 6.9% | 89.5% | 98.4% | anti-IL-6R IgG antibody 19 (C19 antibody, Fab chimerized with human IgG1) (antibody, V domains shown) VH: EVKLMESGGGLVQPGGSLKLSCAASGFTFSNYGMSWVRQTPDKRLELVAIMNSKGGSTYYPDSVMGRFTISRDNAKNTLYLQMSSLKSEDTAMYYCARDGYYTMDYWGQGTSVTVSS VL: DIVLTQSPASLAVSLGQRATISCRASKSVDSFGNSFMHWYQQKPGQSPRLLIFLASNLESGVPARFSGSGSRTDFTLTIDPVEADDAATYYCQQNNEDPYTFGGGTKLEIK
531 ng/ml and 3.5 nM | 304 ng/ml and 2 nM | 92.6% | 87.6% | 94.7% | 88.6% | > 53 nM | 108% | 86.2% | 114% | 0.2% | 86.9% | 88.1% | anti-IL-6R IgG antibody 20 (C20 antibody, Fab chimerized with human IgG1) (antibody, V domains shown) VH: EVKLMESGGGLVQPGGSLKLSCAASGFTFSNYGMSWVRQTPDKRLELVAIINSNGGSTYYPDSVKGRFTISRDNAKNTLYLQMSSLKSEDTAIYYCARDGNFVSDYWGQGTTLTVSS VL: DIVLTQSPASLAVSLGQRATISCRASESVDSYGNRFLNWYQQKPGQPPKLLIYLASNLESGVPARFSGSGSRTDFTLTIDPVEADDAATYYCQQNNEDPYTFGGGTKLEIK
